The values below come from article PMC5066248.

The target in the assay is His6-GroEL. The assay is described as follows: cryo-EM structure; His6-GroEL captured from clarified E. coli lysate on Ni2+-activated BSA-PABA-GO-NTA coated lacey carbon 400 mesh grids; single particle analysis of 5363 particles in EMAN 2.1 with imposed D7 symmetry; 8.1 Å (gold standard, 0.143 criteria).

His6-GroEL, sequence (A1AJ51 2-548): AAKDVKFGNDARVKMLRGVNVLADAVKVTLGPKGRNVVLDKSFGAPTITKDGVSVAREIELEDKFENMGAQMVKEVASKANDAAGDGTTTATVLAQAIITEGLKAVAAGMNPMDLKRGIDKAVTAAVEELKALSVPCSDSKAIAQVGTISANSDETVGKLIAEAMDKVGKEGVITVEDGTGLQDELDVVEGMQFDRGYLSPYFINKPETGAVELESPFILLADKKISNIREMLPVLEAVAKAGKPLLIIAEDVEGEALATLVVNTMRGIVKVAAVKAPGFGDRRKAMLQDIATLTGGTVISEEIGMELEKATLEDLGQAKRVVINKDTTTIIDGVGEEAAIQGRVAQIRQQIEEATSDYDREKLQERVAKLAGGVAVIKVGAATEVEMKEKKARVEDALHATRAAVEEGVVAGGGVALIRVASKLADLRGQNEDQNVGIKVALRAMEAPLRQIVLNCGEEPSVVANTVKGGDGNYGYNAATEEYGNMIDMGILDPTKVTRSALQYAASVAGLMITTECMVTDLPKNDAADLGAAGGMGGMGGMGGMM

Consider His6-GroEL (natural protein), for which the stoichiometry N (as a rule, a count of units in the complex or per binding partner) stood at 14.
